The values that follow come from patent US20230414780A1 (VECT HORUS, published 2023).

Assay [1] addresses T1, human transferrin receptor (hTfR) fused to EGFP, on CHO cells (human, UniProt P02786 1-760). Nature of the assay: cell-based or functional assay.
The target in assay [2] is T1, human transferrin receptor (hTfR) fused …. Nature of the assay: flow cytometry on CHO-hTfR-EGFP cells, 1 hr at 4 C, anti-6His + Alexa647 anti-mouse; ratio to background fluorescence. On the procedure:
FIGS. 15A-15H: In vitro gene silencing activity of VHH-siGFPst1 bioconjugates. […] CHO-hTfR-EGFP cells were incubated 1 hr at 4° C. with various concentrations of the indicated compounds. Detection of VHHs was performed using a primary mouse anti-6His (1/1000) and an Alexa647-conjugated anti-mouse secondary antibody (1/400). Measurements of cell-surface signal associated to VHH were performed using flow cytometry. The results are expressed as the ratio of Alexa647-associated fluorescence intensity of test compounds to that of background fluorescence. […] The total fluorescence associated to the EGFP protein was then quantified using flow cytometry and rationalized to that of untreated (control) cells (set at 100%) *** p≤0.001. […] The total fluorescence associated with the EGFP protein was then quantified using flow cytometry and rationalized to that of untreated (control) cells (set at 100%). […] CHO-hTfR-EGFP cells were incubated with the indicated compounds at 1 μM during 120 hrs at 37° C. Data were processed and analyzed as described in (B). *** p≤0.001 vs. untreated cells. […] The total fluorescence associated with the EGFP protein was then quantified using flow cytometry and rationalized to that of untreated (control) cells (set at 100%).

Assay [3] shares this target. Nature of the assay: flow cytometry on CHO-hTfR-EGFP cells, 1 hr at 4 C, anti-6His + Alexa647 anti-mouse; nonlinear fit. On the procedure: CHO-hTfR-EGFP cells were incubated 1 hr at 4° C. with various concentrations of the indicated compounds. Detection of VHHs was performed using a primary mouse anti-6His (1/1000) and an Alexa647-conjugated anti-mouse secondary antibody (1/400). Measurements of cell-surface signal associated with VHH were performed using flow cytometry. The results are expressed as the ratio of Alexa647-associated fluorescence intensity of test compounds to that of background fluorescence.

The target in assay [4] is T2, human TfR ectodomain fused to a mouse IgG1 Fc fragment (human, UniProt P02786 89-760).
T2 construct: extracellular domain; ectodomain fused to the N-terminal end of the Fc, made in-house; not shown: mouse IgG1 Fc fragment
T2 sequence (P02786 89-760): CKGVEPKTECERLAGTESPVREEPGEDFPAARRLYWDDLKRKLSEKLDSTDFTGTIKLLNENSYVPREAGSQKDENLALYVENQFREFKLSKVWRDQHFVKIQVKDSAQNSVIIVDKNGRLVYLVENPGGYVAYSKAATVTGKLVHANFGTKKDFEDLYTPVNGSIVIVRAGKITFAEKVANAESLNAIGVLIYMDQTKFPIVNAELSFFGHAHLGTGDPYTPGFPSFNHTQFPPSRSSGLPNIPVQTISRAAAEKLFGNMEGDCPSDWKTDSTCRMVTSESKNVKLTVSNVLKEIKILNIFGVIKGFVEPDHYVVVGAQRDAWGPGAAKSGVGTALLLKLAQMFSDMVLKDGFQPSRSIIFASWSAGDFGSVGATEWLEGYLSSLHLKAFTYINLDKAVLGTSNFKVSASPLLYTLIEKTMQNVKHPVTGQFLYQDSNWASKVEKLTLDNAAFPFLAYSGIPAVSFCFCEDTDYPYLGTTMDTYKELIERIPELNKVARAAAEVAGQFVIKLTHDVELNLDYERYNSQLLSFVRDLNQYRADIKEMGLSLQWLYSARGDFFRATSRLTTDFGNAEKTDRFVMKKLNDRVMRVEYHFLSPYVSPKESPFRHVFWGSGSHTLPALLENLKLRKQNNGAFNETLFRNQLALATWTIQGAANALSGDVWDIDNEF
Nature of the assay: SPR, kinetic. The gist of the method: (§1)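 TfR–mouse Fc fusions, produced in-house, captured on HC 1500M or CM5 chips either directly or via immobilized anti-mouse IgG. VHHs injected in single-cycle or multiple-cycle kinetic mode on Biacore T200.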

For assay [5], the target named is T2, human TfR ectodomain fused to a mouse …. Nature of the assay: SPR, at equilibrium. The gist of the method:
as §1

In assay [6] the target is T1, human transferrin receptor (hTfR) fused …. Nature of the assay: flow cytometry on CHO-hTfR-EGFP cells, 1 hr at 4 C, anti-6His + Alexa647 anti-mouse; apparent Kd, mean ± SEM of 3 experiments. On the procedure: (§2) (A) CHO-hTfR-EGFP and CHO-mTfR-EGFP cells were incubated 1 hr at 4° C. with various concentrations of VHHs, detected with a mouse anti-6His (1/1000) and an Alexa647-conjugated anti-mouse secondary antibody (1/400). Measurements were performed using flow cytometry.
(§3) All experiments were performed in 96 well plates using 2×10⁵ cells/well, at 4° C. with shaking. CHO cell lines stably expressing the hTfR or the mTfR fused to EGFP or CHO WT cells were saturated with PBS/BSA 2% solution during 30 min to avoid non-specific binding, followed by incubation with purified VHHs at concentrations ranging from 50 μM to 5 μM for 1 hr. After one wash in PBS/BSA 2%, cells were incubated for 1 hr with an anti-6His tag antibody (mouse), washed twice with PBS/BSA 2%, and incubated for 45 min with an Alexa647-conjugated anti-mouse secondary antibody. After two last washes in PBS/BSA 2%, cells were fixed by incubation for 15 min with PBS/PFA 2%, washed once with PBS and finally resuspended in PBS and stored at 4° C. Fluorescence levels were assessed using an Attune NxT Flow Cytometer (Thermo Fisher Scientific). […] No labeling of the CHO WT control cells was detected with all the tested VHHs (not shown). The VHH K_{d app} were calculated using GraphPad Prism software (FIG. 11-B; 12-B).

The target in assay [7] is T3, mouse transferrin receptor (mTfR) fused to EGFP, on CHO cells (mouse, UniProt Q62351 1-763).
T3 construct: whole, on cells; also called mouse TfR; CHO-mTfR-EGFP; not shown: EGFP
T3 sequence (Q62351 whole entry, the tested form may be a part): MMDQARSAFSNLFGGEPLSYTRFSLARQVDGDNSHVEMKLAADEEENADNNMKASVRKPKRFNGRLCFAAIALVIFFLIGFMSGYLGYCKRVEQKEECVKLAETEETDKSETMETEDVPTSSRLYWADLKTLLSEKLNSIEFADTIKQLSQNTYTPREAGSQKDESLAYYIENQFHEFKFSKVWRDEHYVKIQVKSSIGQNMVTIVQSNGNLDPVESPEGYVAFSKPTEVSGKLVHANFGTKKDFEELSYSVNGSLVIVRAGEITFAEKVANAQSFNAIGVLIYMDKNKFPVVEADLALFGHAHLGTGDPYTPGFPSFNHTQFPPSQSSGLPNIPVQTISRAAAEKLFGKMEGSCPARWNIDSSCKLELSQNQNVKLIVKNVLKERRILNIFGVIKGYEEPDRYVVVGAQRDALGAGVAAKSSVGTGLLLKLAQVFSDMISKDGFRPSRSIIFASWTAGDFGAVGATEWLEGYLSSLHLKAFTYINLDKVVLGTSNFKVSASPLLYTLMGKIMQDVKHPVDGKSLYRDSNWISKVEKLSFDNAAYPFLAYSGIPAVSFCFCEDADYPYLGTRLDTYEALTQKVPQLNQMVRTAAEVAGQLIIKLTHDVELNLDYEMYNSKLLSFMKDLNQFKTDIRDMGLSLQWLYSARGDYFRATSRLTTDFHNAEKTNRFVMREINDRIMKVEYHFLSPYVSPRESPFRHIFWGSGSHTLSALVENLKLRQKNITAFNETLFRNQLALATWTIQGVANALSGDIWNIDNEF
Nature of the assay: flow cytometry on CHO-mTfR-EGFP cells, 1 hr at 4 C, anti-6His + Alexa647 anti-mouse; apparent Kd, mean ± SEM of 3 experiments. On the procedure: as §2, §3

Assay [8] deals with T1, human transferrin receptor (hTfR) fused …. Nature of the assay: apparent Kd, flow cytometry, CHO cells. On the procedure:
as §3

Assay [9] has as its target T3, mouse transferrin receptor (mTfR) fused …. Nature of the assay: apparent Kd, flow cytometry, CHO cells. On the procedure: as §3
Assay [10] deals with T1, human transferrin receptor (hTfR) fused …. Nature of the assay: flow cytometry on CHO-hTfR-EGFP cells, 1 hr at 4 C, anti-6His + Alexa647 anti-mouse; apparent Kd, mean ± SEM of 3 experiments. On the procedure: (A) CHO-hTfR-EGFP and CHO-mTfR-EGFP cells were incubated 1 hr at 4° C. with various concentrations of VHHs, detected with a mouse anti-6His (1/1000) and an Alexa647-conjugated anti-mouse secondary antibody (1/400). Measurements were performed using flow cytometry. The ratio of fluorescence intensity for each point was normalized with the corresponding EGFP signal (receptor expression) and gave rise to the arbitrary unit. Data are presented as mean±SEM of 3 independent experiments. (B) Characteristics of VHHs: Molecular Weight (Da); Theoretical pI; Apparent Kd on human TfR (nM); Apparent Kd on mouse TfR (nM). Data are presented as mean±SEM of 3 independent experiments. NB: no binding, LB: low binding.
All experiments were performed in 96 well plates using 2×10⁵ cells/well, at 4° C. with shaking. CHO cell lines stably expressing the hTfR or the mTfR fused to EGFP or CHO WT cells were saturated with PBS/BSA 2% solution during 30 min to avoid non-specific binding, followed by incubation with purified VHHs at concentrations ranging from 50 μM to 5 μM for 1 hr. After one wash in PBS/BSA 2%, cells were incubated for 1 hr with an anti-6His tag antibody (mouse), washed twice with PBS/BSA 2%, and incubated for 45 min with an Alexa647-conjugated anti-mouse secondary antibody. […] Fluorescence levels were assessed using an Attune NxT Flow Cytometer (Thermo Fisher Scientific).
This is another data set of the same source.

Assay [11] deals with T3, mouse transferrin receptor (mTfR) fused …. Nature of the assay: flow cytometry, CHO cells.
The target is the same in assay [12]. Nature of the assay: cell-based flow cytometry assay on mTfR-expressing cells (as in Example XI).
Assay [13] shares this target. Nature of the assay: cell-based flow cytometry assay on mTfR-expressing cells (as in Example XI); Kd/app.

T1 sequence (P02786 whole entry, the tested form may be a part): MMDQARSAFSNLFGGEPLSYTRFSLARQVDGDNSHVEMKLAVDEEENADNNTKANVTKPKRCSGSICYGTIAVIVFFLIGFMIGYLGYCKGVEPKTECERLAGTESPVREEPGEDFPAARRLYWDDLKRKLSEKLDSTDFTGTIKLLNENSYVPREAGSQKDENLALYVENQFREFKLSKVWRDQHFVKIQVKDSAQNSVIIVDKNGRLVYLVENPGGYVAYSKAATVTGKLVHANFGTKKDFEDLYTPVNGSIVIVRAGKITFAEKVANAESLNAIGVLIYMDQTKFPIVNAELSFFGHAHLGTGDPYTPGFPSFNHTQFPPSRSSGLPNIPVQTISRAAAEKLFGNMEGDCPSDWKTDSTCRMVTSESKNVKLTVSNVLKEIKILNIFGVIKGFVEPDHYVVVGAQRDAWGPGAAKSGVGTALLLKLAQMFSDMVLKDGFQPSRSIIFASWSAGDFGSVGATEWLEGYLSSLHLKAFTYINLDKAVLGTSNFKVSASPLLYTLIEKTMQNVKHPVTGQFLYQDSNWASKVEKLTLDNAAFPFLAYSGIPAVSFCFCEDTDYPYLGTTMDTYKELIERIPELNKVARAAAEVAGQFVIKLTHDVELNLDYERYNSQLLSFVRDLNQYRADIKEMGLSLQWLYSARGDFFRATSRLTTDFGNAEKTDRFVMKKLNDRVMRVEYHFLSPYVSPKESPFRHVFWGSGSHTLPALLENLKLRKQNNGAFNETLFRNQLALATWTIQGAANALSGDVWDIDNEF

B1: VHH A-siGFPst1 bioconjugate (VHH)
VHH: EVQLVESGGGVVQPGGSLKLSCVASGTDFSINFIRWYRQAPGKQREFVAGFTATGNTNYADSMKGRFTISRDNTKNAVYLQIDSLKPEDTAVYYCYMLDKWGQGTQVTVSS
modifications: siGFPst1 siRNA linked by azide/DBCO click chemistry to the Gln of the C-terminal Q-tag
notes: not shown: C-terminal tag with His tag and Q-tag (Q-tagged VHH)
With B1, in assay [1], the “IC50 of reduction of GFP protein levels, 6-hour pulse and chase to 120 hrs” value was 1.24 nM; the “IC50 of reduction of GFP protein levels, free uptake 120 hrs” value is 2.73 nM. In addition, the “EC50 (read off the curve)” value in [2] is around 3 nM.

B2: VHH A-NODAGA bioconjugate (VHH, not shown: small tags and cut ends)
VHH: EVQLVESGGGVVQPGGSLKLSCVASGTDFSINFIRWYRQAPGKQREFVAGFTATGNTNYADSMKGRFTISRDNTKNAVYLQIDSLKPEDTAVYYCYMLDKWGQGTQVTVSS
modifications: NODAGA-BCN clicked to an azido linker on the Gln of the C-terminal Q-tag
Regarding B2, the Kd in [3] was determined as 7.72 nM.

B3: VHH A19 (C5^V19) (VHH)
VHH: EVQLVESGGGVVQPGGSLKLSCVASGTDFSINFIRWYRQAPGKQREFVAGFTATGNTNYADSMKGRFTISRDNTKNAVYLQIDSLKPEDTAVYYCYMLEKWGQGTQVTVSS
As to B3, the Kd was 22.3 nM in [4], 7.13 nM in assay [5], 9.2 nM in assay [6] and 210 nM in assay [7]. Further, the koff in assay [4] came to 0.0097 s⁻¹. The molecule further displayed a kon in assay [4] of 426000 M⁻¹ s⁻¹.

B4: VHH A17 (C5^V17) (VHH)
VHH: EVQLVESGGGVVQPGGSLKLSCVASGTDFSINFIRWYRQAPGKQREFVAGFTATGNTNYADSMKGRFTISRDNTKNAVYLQIDSLKPEDTAVYYCYMIDKWGQGTQVTVSS
Regarding B4, the Kd in assay [8] is 3 to 4 nM; in [6], 5.3 nM; in assay [7], 208 nM.

B5: VHH A5 (C5^V5) (VHH)
VHH: EVQLVESGGGVVQPGGSLKLSCVASGTDFSINFIRWYRQAPGKQREFVAGFTATGNTNYADSMKGRFTISRDNTKNAVYLQIDSLKPEDTAVYYCAMLDKWGQGTQVTVSS
As for B5, the Kd in assay [4] amounted to 154 nM; in [5], 180 nM; in assay [9], 604 nM; in assay [10], 25 nM. Also, the dissociation rate constant (koff) in [4] came out at 0.0509 s⁻¹. Besides, the kon in assay [4] came out at 332000 M⁻¹ s⁻¹.

B6: 13C3-HC-C5h16 (antibody)
heavy: QVQLQQSGPELVRPGVSVKISCKGSGYTFTDYAMHWVKQSHAKSLEWIGVISTKYGKTNYNQKFKGKATMTVDKSSSTAYMELARLTSEDSAIYYCARGDDGYSWGQGTSVTVSSAKTTPPSVYPLAPGSAAQTNSMVTLGCLVKGYFPEPVTVTWNSGSLSSGVHTFPAVLQSDLYTLSSSVTVPSSTWPSETVTCNVAHPASSTKVDKKIVPRDCGCKPCICTVPEVSSVFIFPPKPKDVLTITLTPKVTCVVVDISKDDPEVQFSWFVDDVEVHTAQTQPREEQFNSTFRSVSELPIMHQDWLNGKEFKCRVNSAAFPAPIEKTISKTKGRPKAPQVYTIPPPKEQMAKDKVSLTCMITDFFPEDITVEWQWNGQPAENYKNTQPIMDTDGSYFVYSKLNVQKSNWEAGNTFTCSVLHEGLHNHHTEKSLSHSPGGGGGMAEVQLVESGGGLVQPGGSLRLSCAASGTDFSINFIRWYRQAPGKGLEFVAGFTATGNTNYADSVKGRFTISRDNSKNTLYLQMNSLRAEDTAVYYCYMLDKWGQGTLVTVSSAAA
light: DVVMTQTPLSLPVSLGDQASISCRSGQSLVHSNGNTYLHWYLQKPGQSPKLLIYTVSNRFSGVPDRFSGSGSGSDFTLKISRVEAEDLGVYFCSQNTFVPWTFGGGTKLEIKRADAAPTVSIFPPSSEQLTSGGASVVCFLNNFYPKDINVKWKIDGSERQNGVLNSWTDQDSKDSTYSMSSTLTLTKDEYERHNSYTCEATHKTSTSPIVKSFNRNEC
Take B6: in [11], the “binding potential, fold lower than 13C3-HC-C5h20” value was around 3 fold. Besides, the Bmax in assay [12] was 381 RFI. Moreover, the Kd in [13] amounted to 19.6 nM.
